Results reported in patent US20030032609A1 (Harvard, published 2003).

Target: T1, aryl hydrocarbon receptor nuclear translocator (ARNT) (human, UniProt P27540 1-789, limits assumed)
T1 construct: also called hARNT
Test: heterodimer formation by deletion mutant; method not named

T1 sequence (P27540 whole entry): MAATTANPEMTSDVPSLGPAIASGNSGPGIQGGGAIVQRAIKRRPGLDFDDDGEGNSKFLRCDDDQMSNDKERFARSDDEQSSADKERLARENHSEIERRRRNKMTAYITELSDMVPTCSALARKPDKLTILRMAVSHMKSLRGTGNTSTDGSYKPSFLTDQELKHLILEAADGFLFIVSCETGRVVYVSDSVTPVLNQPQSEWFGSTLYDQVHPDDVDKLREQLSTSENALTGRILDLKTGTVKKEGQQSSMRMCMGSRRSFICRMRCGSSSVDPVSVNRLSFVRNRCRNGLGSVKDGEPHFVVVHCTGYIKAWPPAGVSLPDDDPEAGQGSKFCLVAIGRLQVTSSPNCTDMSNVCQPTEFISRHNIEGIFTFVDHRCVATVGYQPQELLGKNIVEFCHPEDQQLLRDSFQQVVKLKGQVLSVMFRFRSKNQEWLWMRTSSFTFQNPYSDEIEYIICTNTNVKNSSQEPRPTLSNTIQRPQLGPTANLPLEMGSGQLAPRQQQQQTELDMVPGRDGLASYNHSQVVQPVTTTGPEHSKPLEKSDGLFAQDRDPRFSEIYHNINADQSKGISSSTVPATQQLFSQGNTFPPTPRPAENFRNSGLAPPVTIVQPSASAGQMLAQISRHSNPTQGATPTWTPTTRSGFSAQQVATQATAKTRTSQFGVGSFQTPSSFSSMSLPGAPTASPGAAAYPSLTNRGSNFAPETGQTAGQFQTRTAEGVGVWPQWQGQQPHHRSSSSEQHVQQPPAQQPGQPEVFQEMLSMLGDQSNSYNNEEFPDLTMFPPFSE

binding result: binds
B1: EPAS1 polypeptide lacking amino acids 486-639 of SEQ ID NO: 6 (other)
chain: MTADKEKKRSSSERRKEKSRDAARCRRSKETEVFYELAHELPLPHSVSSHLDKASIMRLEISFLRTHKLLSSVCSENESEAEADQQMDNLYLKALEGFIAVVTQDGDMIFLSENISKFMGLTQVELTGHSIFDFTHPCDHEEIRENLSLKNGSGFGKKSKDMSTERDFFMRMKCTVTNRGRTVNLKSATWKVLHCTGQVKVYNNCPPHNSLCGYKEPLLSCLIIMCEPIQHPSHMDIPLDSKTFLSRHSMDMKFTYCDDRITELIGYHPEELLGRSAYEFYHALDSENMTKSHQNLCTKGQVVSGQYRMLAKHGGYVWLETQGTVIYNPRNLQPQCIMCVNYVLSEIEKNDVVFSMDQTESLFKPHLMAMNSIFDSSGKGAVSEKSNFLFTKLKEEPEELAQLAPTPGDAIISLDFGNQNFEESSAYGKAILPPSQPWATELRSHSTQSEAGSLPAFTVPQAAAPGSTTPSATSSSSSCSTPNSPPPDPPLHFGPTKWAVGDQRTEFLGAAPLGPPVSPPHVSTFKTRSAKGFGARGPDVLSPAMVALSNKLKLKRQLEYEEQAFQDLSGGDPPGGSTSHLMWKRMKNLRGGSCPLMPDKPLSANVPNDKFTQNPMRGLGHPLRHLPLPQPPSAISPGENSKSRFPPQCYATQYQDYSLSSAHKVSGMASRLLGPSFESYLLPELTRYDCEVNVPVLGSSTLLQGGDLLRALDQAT
notes: Internal deletion as worded; The C-terminal end, 870, is derived from '1-690' plus '180 C-terminal amino acids'; also called dominant negative EPAS1 mutant
